Molecular target: conSOSL.UFO.664 trimer with a C-terminal 8x His-tag (SUFO.664-His) (HIV-1 (consensus S))
Assay: SEC + native gel or EMSA; SEC on HiPrep 26/60 Sephacryl S-300 HR after lectin affinity; eluted fractions analysed by Native-PAGE with silver stain and Western blot

For “conSOSL.UFO.664 trimer with a C-terminal 8x His-tag (SUFO.664-His)”, the stoichiometry N was 3.

— paper PMC9318220
